Data published in PMC12392863, “Natural Design of a Stabilized Cross‐β Fold: Structure of the FuA FapC from Pseudomonas Sp. UK4 Reveals a Critical Role for Stacking of Imperfect Repeats” (Advanced Materials (Deerfield Beach, Fla.), 2025).

Experiments:
[1] = target: FapC from P. fluorescens Pf5, wild type (P. fluorescens Pf5) (UniProt P0DXF5); assay: formic acid dissolution of fibrils with SDS-PAGE; mature fibrils in 0-100% formic acid, 30 min, room temperature; centrifuged; released monomer in the supernatant on SDS-PAGE, normalised to 100% FA
[2] = target: FapC from Pseudomonas putida F1, wild type (Pseudomonas putida F1); assay: as above
[3] = target: FapC from Pseudomonas aeruginosa PAO1, wild type (Pseudomonas aeruginosa PAO1); assay: seeded ThT fibrillation kinetics, global fit with AmyloFit; 5 µM FapC UK4 monomer with 0-10% v/v sonicated fibril seeds of UK4, PAO1, Pf5 or F1 FapC; 40 µM ThT, 50 mM Tris/HCl pH 7.4, 37 °C, no shaking; constants of monomer addition to (k+) and release from (Koff) fibrils; time in hours
[4] = target: FapC from Pseudomonas fluorescens Pf5, wild type (P. fluorescens Pf5); assay: as above
[5] = target: FapC from Pseudomonas putida F1, wild type (Pseudomonas putida F1); assay: as above
[6] = target: the molecule itself; assay: ThT fluorescence fibrillation kinetics; self-assembly into amyloid without seeds; 15 µM FapC (wt or mutant; wt also 1-15 µM), 50 mM Tris/HCl pH 7.4, 40 µM ThT, 37 °C, no shaking, followed for 120 h

Row | Molecule | binding result [6] | further results
1 | FapC from P. fluorescens Pf5, wild type (from UniProt P0DXF5 25-250) (natural protein) | – | formic acid needed to dissolve half of the fibrils [1]: 70 % FA
2 | FapC from Pseudomonas putida F1, wild type (natural protein) | – | formic acid needed to dissolve half of the fibrils [2]: 70 % FA
3 | FapC from Pseudomonas sp. UK4, wild type (from UniProt P0DXF5 25-250) (natural protein) | – | koff [3]: 3.94e-14 s⁻¹; koff [4]: 9.11e-13 s⁻¹; koff [5]: 1.96e-15 s⁻¹
4 | FapC UK4 Asn200Ala (natural protein, Pseudomonas sp. UK4, FapC, Pseudomonas sp; UK4, point mutant made on the FapC UK4 plasmid; Same construct as m1 but for the mutation; source: E. coli BL21 (DE3), purified (Ni-NTA in 7.5 M guanidine hydrochloride), desalted) GPAEKWKPTPAPTGTVAAAVTDTQVSKDNKFDDTKTLNNAGANGSLSNSKGNLGANIAAGSGNQQDNAAAITSSAGDAATVFAVADIYQESKDNKFTNKGTQNNALLNNSANNSSGNVGVNVAAGQGNQQKNNLAIVTADGKNVAAASNTEQVSLDNHFLNEASSKHSYKPQYVVANAGLLNSANNASGNIGVNVAAGAGNQQSNTLTLGSGCTVCAAGTGSKLAF | binds | –
5 | FapC UK4 Lys155Asp and Ser228Asp (natural protein, Pseudomonas sp. UK4, FapC, Pseudomonas sp; UK4, double charge mutant made on the FapC UK4 plasmid; Same construct as m1 but for the mutations; also called cluster of four negative charges (Asp46, Asp90, Asp155, and Asp228); source: E. coli BL21 (DE3), purified (Ni-NTA in 7.5 M guanidine hydrochloride), desalted) GPAEKWKPTPAPTGTVAAAVTDTQVSKDNKFDDTKTLNNAGANGSLSNSKGNLGANIAAGSGNQQDNAAAITSSAGDAATVFAVADIYQESKDNKFTNKGTQNNALLNNSANNSSGNVGVNVAAGQGNQQDNNLAIVTADGKNVAAASNTEQVSLDNHFLNEASSKHSYKPQYVVNNAGLLNSANNASGNIGVNVAAGAGNQQDNTLTLGSGCTVCAAGTGSKLAF | binds | –
6 | FapC UK4 Gly84Ala (natural protein, Pseudomonas sp. UK4, FapC, Pseudomonas sp; UK4, point mutant made on the FapC UK4 plasmid; Same construct as m1 but for the mutation; also called G84A; source: E. coli BL21 (DE3), purified (Ni-NTA in 7.5 M guanidine hydrochloride), desalted) GPAEKWKPTPAPTGTVAAAVTDTQVSKDNKFDDTKTLNNAGANGSLSNSKGNLGANIAAASGNQQDNAAAITSSAGDAATVFAVADIYQESKDNKFTNKGTQNNALLNNSANNSSGNVGVNVAAGQGNQQKNNLAIVTADGKNVAAASNTEQVSLDNHFLNEASSKHSYKPQYVVNNAGLLNSANNASGNIGVNVAAGAGNQQSNTLTLGSGCTVCAAGTGSKLAF | binds | –
7 | FapC UK4 Gly75Ala (natural protein, Pseudomonas sp. UK4, FapC, Pseudomonas sp; UK4, point mutant made on the FapC UK4 plasmid; Same construct as m1 but for the mutation; source: E. coli BL21 (DE3), purified (Ni-NTA in 7.5 M guanidine hydrochloride), desalted) GPAEKWKPTPAPTGTVAAAVTDTQVSKDNKFDDTKTLNNAGANGSLSNSKANLGANIAAGSGNQQDNAAAITSSAGDAATVFAVADIYQESKDNKFTNKGTQNNALLNNSANNSSGNVGVNVAAGQGNQQKNNLAIVTADGKNVAAASNTEQVSLDNHFLNEASSKHSYKPQYVVNNAGLLNSANNASGNIGVNVAAGAGNQQSNTLTLGSGCTVCAAGTGSKLAF | binds | –
8 | FapC UK4 Asn229Ala (natural protein, Pseudomonas sp. UK4, FapC, Pseudomonas sp; UK4, point mutant made on the FapC UK4 plasmid; Same construct as m1 but for the mutation; source: E. coli BL21 (DE3), purified (Ni-NTA in 7.5 M guanidine hydrochloride), desalted) GPAEKWKPTPAPTGTVAAAVTDTQVSKDNKFDDTKTLNNAGANGSLSNSKGNLGANIAAGSGNQQDNAAAITSSAGDAATVFAVADIYQESKDNKFTNKGTQNNALLNNSANNSSGNVGVNVAAGQGNQQKNNLAIVTADGKNVAAASNTEQVSLDNHFLNEASSKHSYKPQYVVNNAGLLNSANNASGNIGVNVAAGAGNQQSATLTLGSGCTVCAAGTGSKLAF | binds | –
9 | FapC UK4 Asp90Lys and Ser228Lys (natural protein, Pseudomonas sp. UK4, FapC, Pseudomonas sp; UK4, double charge mutant made on the FapC UK4 plasmid; Same construct as m1 but for the mutations; also called cluster of three positive charges (Lys90, Lys155, and Lys228); source: E. coli BL21 (DE3), purified (Ni-NTA in 7.5 M guanidine hydrochloride), desalted) GPAEKWKPTPAPTGTVAAAVTDTQVSKDNKFDDTKTLNNAGANGSLSNSKGNLGANIAAGSGNQQKNAAAITSSAGDAATVFAVADIYQESKDNKFTNKGTQNNALLNNSANNSSGNVGVNVAAGQGNQQKNNLAIVTADGKNVAAASNTEQVSLDNHFLNEASSKHSYKPQYVVNNAGLLNSANNASGNIGVNVAAGAGNQQKNTLTLGSGCTVCAAGTGSKLAF | binds | –
10 | FapC UK4 Asn87Ala (natural protein, Pseudomonas sp. UK4, FapC, Pseudomonas sp; UK4, point mutant made on the FapC UK4 plasmid; Same construct as m1 but for the mutation; also called Asn87 mutant; source: E. coli BL21 (DE3), purified (Ni-NTA in 7.5 M guanidine hydrochloride), desalted) GPAEKWKPTPAPTGTVAAAVTDTQVSKDNKFDDTKTLNNAGANGSLSNSKGNLGANIAAGSGAQQDNAAAITSSAGDAATVFAVADIYQESKDNKFTNKGTQNNALLNNSANNSSGNVGVNVAAGQGNQQKNNLAIVTADGKNVAAASNTEQVSLDNHFLNEASSKHSYKPQYVVNNAGLLNSANNASGNIGVNVAAGAGNQQSNTLTLGSGCTVCAAGTGSKLAF | binds | –
11 | FapC UK4 N145A (natural protein, Pseudomonas sp. UK4, FapC, Pseudomonas sp; UK4, point mutant made on the FapC UK4 plasmid; Same construct as m1 but for the mutation; source: E. coli BL21 (DE3), purified (Ni-NTA in 7.5 M guanidine hydrochloride), desalted) GPAEKWKPTPAPTGTVAAAVTDTQVSKDNKFDDTKTLNNAGANGSLSNSKGNLGANIAAGSGNQQDNAAAITSSAGDAATVFAVADIYQESKDNKFTNKGTQNNALLNNSANNSSGNVGVAVAAGQGNQQKNNLAIVTADGKNVAAASNTEQVSLDNHFLNEASSKHSYKPQYVVNNAGLLNSANNASGNIGVNVAAGAGNQQSNTLTLGSGCTVCAAGTGSKLAF | binds | –
12 | FapC UK4 Gln227Ala (natural protein, Pseudomonas sp. UK4, FapC, Pseudomonas sp; UK4, point mutant made on the FapC UK4 plasmid; Same construct as m1 but for the mutation; source: E. coli BL21 (DE3), purified (Ni-NTA in 7.5 M guanidine hydrochloride), desalted) GPAEKWKPTPAPTGTVAAAVTDTQVSKDNKFDDTKTLNNAGANGSLSNSKGNLGANIAAGSGNQQDNAAAITSSAGDAATVFAVADIYQESKDNKFTNKGTQNNALLNNSANNSSGNVGVNVAAGQGNQQKNNLAIVTADGKNVAAASNTEQVSLDNHFLNEASSKHSYKPQYVVNNAGLLNSANNASGNIGVNVAAGAGNQASNTLTLGSGCTVCAAGTGSKLAF | binds | –
13 | FapC UK4 Gly75Pro (natural protein, Pseudomonas sp. UK4, FapC, Pseudomonas sp; UK4, point mutant made on the FapC UK4 plasmid; Same construct as m1 but for the mutation; source: E. coli BL21 (DE3), purified (Ni-NTA in 7.5 M guanidine hydrochloride), desalted) GPAEKWKPTPAPTGTVAAAVTDTQVSKDNKFDDTKTLNNAGANGSLSNSKPNLGANIAAGSGNQQDNAAAITSSAGDAATVFAVADIYQESKDNKFTNKGTQNNALLNNSANNSSGNVGVNVAAGQGNQQKNNLAIVTADGKNVAAASNTEQVSLDNHFLNEASSKHSYKPQYVVNNAGLLNSANNASGNIGVNVAAGAGNQQSNTLTLGSGCTVCAAGTGSKLAF | binds | –
14 | FapC UK4 Q89A (natural protein, Pseudomonas sp. UK4, FapC, Pseudomonas sp; UK4, point mutant made on the FapC UK4 plasmid; Same construct as m1 but for the mutation; also called Gln89 mutant; source: E. coli BL21 (DE3), purified (Ni-NTA in 7.5 M guanidine hydrochloride), desalted) GPAEKWKPTPAPTGTVAAAVTDTQVSKDNKFDDTKTLNNAGANGSLSNSKGNLGANIAAGSGNQADNAAAITSSAGDAATVFAVADIYQESKDNKFTNKGTQNNALLNNSANNSSGNVGVNVAAGQGNQQKNNLAIVTADGKNVAAASNTEQVSLDNHFLNEASSKHSYKPQYVVNNAGLLNSANNASGNIGVNVAAGAGNQQSNTLTLGSGCTVCAAGTGSKLAF | binds | –
